Assays:
human neutrophils [1] = experiment: Micropipette assay (directional migration toward fMLP tip); type: cell-based
Description: Delta T dishes were coated with human FN (50 μg/ml, BD Biosciences, San Jose, Calif.) for overnight at 4° C. and then for 4 h at room temperature. Plates were then rinsed with L-15 media. […] The cells were then added to FN-coated dishes in 1.5 ml of L-15 with 2 mg/ml of glucose. For neutrophil live cell staining, 2 μM Green Cell Tracker CMFDA (5-chloromethylfluorescein diacetate; Molecular Probes, Carlsbad, Calif.) was used. Temperature was maintained at 37° C. throughout the experiment using a FCS2 live-cell imaging chamber (Bioptechs, Butler, Pa.). Images were acquired for 30 to 60 minutes under a 10× objective lens using a Nikon TE-2000U inverted microscope. Phase contrast images were acquired every 5 seconds and fluorescence images every 30 seconds. Cell paths were traced using MetaVue™ imaging software (Molecular Devices Corporation, Downingtown, Pa.).
Directional migration was investigated using a micropipette assay to analyze the dynamics of neutrophil migration on different integrin ligands. Sterile Femtotips II micropipette tips (Eppendorf, Westbury, N.Y.) were loaded with 5 μl of 1 μM fMLP and then placed on the bottom of FN-coated delta T dishes that had been pre-warmed to 37° C. Image acquisition began within 2 minutes of tip placement.
The time-lapsed images of migrating neutrophils were taken under phase contrast microscopy. Each image was thresholded and binarized based on brightness to define the centroids of the neutrophils. The closest centroids between consecutive images were linked as a trajectory under the assumption that these centroids were made by the same neutrophil. The maximum distance between the closest centroids was also defined to preclude the artifacts due to cells moving into and out of the field of view.

human neutrophils [2] = experiment: Intracellular Ca2+ measurement (Fluo-4); type: cell-based; settings: 10 nM fMLP
Description: 1×10^7 cells/ml of human neutrophils were labeled with […] Fluo-4 AM (Molecular Probes, Eugene, Oreg.) at 37° C. for 30 minutes, then at room temperature for an additional 5 to 10 minutes. After washing twice, cells were resuspended to 4×10^6 cells/ml (6 ml) in F15 and incubated at RT for de-esterification. For measurements, cells (4×10^6) were spun down in a microtube (1 ml), resuspend in 1 ml of F15 at 37° C., transferred to a quartz cuvette containing a fluorometric stir bar and 1 ml of the same buffer at 37° C., and fluorescence signals were measured in the fluorometer.

LPS treated mice = experiment: Neutrophil recruitment into airspace (BALF) after intranasal LPS; type: in vivo, mice (C57BL/6); settings: 10 μg/mouse i.v. 2 hours after LPS
Description: Mice (C57BL/6, 6-8 weeks) were anesthetized with avertin and then intranasally administered 30 μg of LPS (Sigma-Aldrich, St. Louis, Mo.). […] Mice were sacrificed 4 hours later and bronchioalveolar lavage was harvested. Cells were fixed with 4% formaldehyde for 20 minutes. Cells were counted using microbeads (Polyscience, Niles, Ill.) by flow cytometry. Cells were stained with Gr-1 APC antibody (eBioscience, San Diego, Calif.) and collected by flow cytometry. Data were analyzed using FlowJo software (Tree Star, Ashland, Oreg.).

[3] = test system: patients with severe sepsis; settings: subset of patients; cited from earlier work
neutrophil = settings: without any protein coatings; cited from earlier work
[4] = test system: lipopolysaccharide (LPS)-induced pulmonary inflammation; settings: intravenous administration; cited from earlier work

B1: rhAPC: Recombinant human activated protein C obtained from Eli Lilly; FDA-approved drug for severe sepsis (protein)
chain 1: ANSFLEELRHSSLERECIEEICDFEEAKEIFQNVDDTLAFWSKHVDGDQCLVLPLEHPCASLCCGHGTCIDGIGSFSCDCRSGWEGRFCQREVSFLNCSLDNGGCTHYCLEEVGWRRCSCAPGYKLGDDLLQCHPAVKFPCGRPWKRMEKKRSHL
chain 2: LIDGKMTRRGDSPWQVVLLDSKKKLACGAVLIHPSWVLTAAHCMDESKKLLVRLGEYDLRRWEKWELDLDIKEVFVHPNYSKSTTDNDIALLHLAQPATLSQTIVPICLPDSGLAERELNQAGQETLVTGWGYHSSREKEAKRNRTFVLNFIKIPVVPHNECSEVMSNMVSENMLCAGILGDRQDACEGDSGGPMVASFHGTWFLVGLVSWGEGCGLLHNYGVYTKVSRYLDWIHGHIRDKEAPQKSWAP
Human neutrophils [1]
  direction of movement: without significantly altering
Human neutrophils [1]; over 30 neutrophils in each group
  decrease of average lateral migration speed (S): more than 2.5 fold
Human neutrophils [1]; rhAPC pre-treatment
  neutrophil migration on FN toward the fMLP tip: dramatically decreased
Human neutrophils [2]
  increase in intracellular Ca2+ concentration by fMLP treatment: had no effect
LPS treated mice
  neutrophil recruitment in the BALF: significantly reduced
[3]
  mortality in patients with severe sepsis: significantly reduced
neutrophil
  neutrophil migration through nitrocellulose micropore filter: inhibited
[4]
  LPS-induced pulmonary inflammation: reduce
